Assay [1] concerns the target Cry11Ba toxin, trypsin-activated (Bacillus thuringiensis jegathesan) (Bacillus thuringiensis jegathesan) (UniProt Q45730). The assay is described as follows: cell-based or functional assay.
Assay [2] has the same target. The assay can be described thus: 125I-Cry11Ba binding to An. gambiae BBMV with 10 µM competitor peptide.
Assay [3] has as its target brush border membrane vesicles (BBMV) of Anopheles gambiae 4th instar larvae (Anopheles gambiae). The assay can be described thus: 2.5 nM 125I-Cry11Ba on 8 µg An. gambiae BBMV, no competitor.
For assay [4] the target is unchanged. The assay is described as follows: 125I-Cry11Ba binding to An. gambiae BBMV in the presence of 10 µM AgAPN2tb, against no peptide.
Assay [5] has the same target. The assay can be described thus: 125I-Cry11Ba binding to An. gambiae BBMV in the presence of 10 µM AgAPN2tb/Del1, against no peptide.
Assay [6] shares this target. The assay is described as follows: 125I-Cry11Ba binding to An. gambiae BBMV in the presence of 10 µM AgAPN2tb/Del3, against no peptide.
The target in assay [7] is T1, Cry11Ba toxin, trypsin-activated (Bacillus thuringiensis jegathesan) (Bacillus thuringiensis jegathesan, UniProt Q45730 29-647, 125I-labelled (chloramine-T) in the BBMV binding assays; unlabelled when coated on microtiter plates).
T1 construct: also called trypsinized Cry11Ba; trypsinated Cry11Ba
The assay can be described thus: saturation ELISA, biotinylated peptide on plates coated with trypsinized Cry11Ba, one-site fit. (ELISA stands for enzyme-linked immunosorbent assay.)

Sequence of Cry11Ba toxin, trypsin-activated (Bacillus thuringiensis jegathesan) (Bacillus thuringiensis jegathesan) (Q45730 29-647 limits assumed): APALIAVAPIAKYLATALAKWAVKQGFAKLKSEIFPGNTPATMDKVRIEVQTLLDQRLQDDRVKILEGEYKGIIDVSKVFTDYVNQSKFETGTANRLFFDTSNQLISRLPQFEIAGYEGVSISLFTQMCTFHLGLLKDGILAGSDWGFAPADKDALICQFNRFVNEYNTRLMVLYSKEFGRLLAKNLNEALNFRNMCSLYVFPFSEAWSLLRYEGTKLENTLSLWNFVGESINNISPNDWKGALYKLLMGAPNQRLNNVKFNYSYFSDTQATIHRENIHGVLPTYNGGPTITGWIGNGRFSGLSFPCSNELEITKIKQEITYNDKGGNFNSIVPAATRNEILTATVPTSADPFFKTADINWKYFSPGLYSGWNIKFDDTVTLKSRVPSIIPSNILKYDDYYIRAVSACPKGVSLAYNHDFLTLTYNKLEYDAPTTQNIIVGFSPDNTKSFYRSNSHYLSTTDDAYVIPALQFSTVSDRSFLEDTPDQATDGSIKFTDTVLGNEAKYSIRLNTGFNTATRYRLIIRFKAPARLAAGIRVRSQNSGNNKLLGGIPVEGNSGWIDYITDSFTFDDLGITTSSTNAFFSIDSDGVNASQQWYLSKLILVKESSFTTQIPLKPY
T1 sequence (Q45730 29-647 limits assumed): as above

Turning to “AgAPN2ta/Del2 (AgAPN2ta with a middle 10-kDa segment deleted) (receptor)”, the larval mortality with Cry11Ba plus peptide inclusion bodies (1:100), 24 h in assay [1] was 8.8%. Besides, in assay [2], the toxin bound to BBMV in presence of the competitor came out at 20.6 fmol.

With “AgAPN2ta/Del3 (AgAPN2ta with the third 10-kDa segment deleted) (receptor)”, the larval mortality with Cry11Ba plus peptide inclusion bodies (1:100), 24 h in assay [1] was 5%. For the same molecule, the toxin bound to BBMV in presence of the competitor in assay [2] was found to be 19.5 fmol.

“Cry11Ba toxin, trypsin-activated (Bacillus thuringiensis jegathesan) (from UniProt Q45730 29-647) (ligand)” gave a toxin bound in assay [3] of 27.9 fmol. Besides, the percent increase of Cry11Ba binding to BBMV in assay [4] was determined as 24%; in assay [5] it was 62%; in assay [6], 45%.

B1: AgAPN2ta, 30-kDa fragment of Anopheles gambiae aminopeptidase N AgAPN2 (residues 336-590 of SEQ ID NO:2) (receptor)
chain: STSMQQHRIAAVISHEIAHQWFGDLVTCEWWDVTWLNEGFARYYQYYGTALVETEWDLDHQFVVEQLQGVMQMDSLRSTHPMTHPVYTQAQTSGIFDNISYNKGAVMLRMMEHYLTTETFKTALRAYIKDRAFKTTRPEDLFNALNRYDPNARSYMEPWTVQPGYPLVTVTSHDTGFTITQKRFLVNEPDHNEQTAWPLPITFATKASEFSITRPAFYTGMTFEIPMQGASDVEYFILNNQQVGYYRVNYDAILW
modifications: biotinylated when used as probe
notes: Expressed in E. coli as inclusion bodies, solubilized in 8M urea, Ni-purified and dialyzed; An N-terminal Met from the NdeI site is implied by the primers; also called AgAPN2a; -2a; not shown: C-terminal vector-derived His tag (pET-30a(+), NdeI/XhoI; purified on Ni2+ column)
What is called Kd is the concentration at which binding is half-saturated. A high value points to lower affinity. For B1, binding in assay [7] was characterised by a dissociation constant (Kd) of 16.7 nM.

B2: AgAPN2tb, 28-kDa fragment of Anopheles gambiae aminopeptidase N AgAPN2 (residues 591-843 of SEQ ID NO:2) (receptor)
chain: GKISKALHSEGFGGIHVLNRAQIVDDLFNLARGDVVPYGTALEILEYLKEETEYAPWLAAVNGLTTLSRRIHADDEKLFTAHILDIFSKAYDIVKFQAPTATERRIFTYMRQNVLQWACNYGHEECSKAAVAEFHRYHQNPSVKVHPDLRQVVYCEGIRKGSTEEFEFLWNQYLTTNVATEQILILQGLGCVSSSELITDMLNGIASPHVRSQDKNNAFTYVINNPYTLPHVSRYLQQNHANWAASHGSYTNV
modifications: biotinylated when used as probe
notes: Expressed in E. coli as inclusion bodies, solubilized in 8M urea, Ni-purified and dialyzed; An N-terminal Met from the NdeI site is implied by the primers; also called AgAPN2b; biotin-AgAPN2tb; not shown: C-terminal vector-derived His tag (pET-30a(+), NdeI/XhoI; purified on Ni2+ column)
Take B2: the Kd in assay [7] was 26.4 nM.
